T1: HIS-tagged human NKG2D (human, UniProt P26718 73-216, limits assumed)
T1 construct: Captured on HIS1K biosensors; not shown: HIS tag
T1 sequence (looked up): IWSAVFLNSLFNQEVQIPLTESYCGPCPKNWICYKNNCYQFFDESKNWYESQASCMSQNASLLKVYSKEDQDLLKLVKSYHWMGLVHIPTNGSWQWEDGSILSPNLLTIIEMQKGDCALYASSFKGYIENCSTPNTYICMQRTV


These binders were tested against T1, HIS-tagged human NKG2D (assay: Octet (BLI): His-tagged human NKG2D captured on HIS1K biosensors, dipped into 100 nM bivalent mAb).

Binder	Kd [nM]	koff [s⁻¹]	kon [M⁻¹ s⁻¹]
XENP27594 (antibody, V domains shown, bivalent anti-NKG2D mAb, IgG1 with ablation variants; also called mAb E[NKG2D]_H1L1_IgG1_PVA_/S267K) VH: EVQLVESGGGLVKPGGSLRLSCAASGFTFSSYSMNWVRQAPGKGLEWVSSITSSSSYIYYADSVKGRFTISRDNAKNSLYLQMNSLRAEDTAVYYCARDRRYFDWFPLDYRGQGTLVTVSS VL: DIQMTQSPSSLSASVGDRVTITCRASQGISSWLAWYQQKPEKAPKSLIYAASSLQSGVPSRFSGSGSGTDFTLTISSLQPEDFATYYCQQYNGYPYTFGQGTKLEIKR	0.343	0.000387	1.13e+06
XENP27591 (antibody, human IgG1, kappa, V domains shown, bivalent anti-NKG2D mAb, IgG1 with ablation variants; also called 11B2D10[NKG2D]_H0L0_IgG1_PVA_/S267K) VH: QVQLQQSGPELVRPGASVKLSCKASGYTFTSYWMNWVQQRPEQGLEWIGRIDPYDSETHYNQKFKDKAILTVDKSASTAYMQLSSLTSEDSAVYYCAKMGDYSFDYWGQGTTVTVSS VL: DIQLTQSPASLSASVGETVTITCRASGNIHNYLAWYQQKQGKSPQVLVYNAKTLADGVPSRFSGSGSGTQYSLKINSLQPEDFGSYYCQHFWSTTWTFGGGTKLEIKR	0.547	0.000792	1.45e+06
XENP27614 (antibody, human IgG1, kappa, V domains shown, humanized bivalent anti-NKG2D mAb, IgG1 with ablation variants; also called mAb A[NKG2D]_H2L2_IgG1_PVA_/S267K) VH: QVQLQESGPGLVKPSETLSLTCTVSGFSLTSYGVHWIRQPPGKGLEWIGVIWAGGSTNYNPSLKSRVTISKDNSKSQVSLKLSSVTAADTAVYYCARGGYEGAAWFGYWGQGTLVTVSS VL: DIQLTQSPATLSLSPGERATLSCRASSSVSYMHWYQQKPGQSPRPLIYATSNLASGVPARFSGSGSGTDYTLTISSLEPEDFAVYYCQQWNSNPLTFGAGTKVEIKR	≤ 0.001	≤ 1e-07	200000
XENP27612 (antibody, human IgG1, kappa, V domains shown, humanized bivalent anti-NKG2D mAb, IgG1 with ablation variants; also called mAb A[NKG2D]_H1L2_IgG1_PVA_/S267K) VH: QVQLVQSGAEVKKPGASVKVSCKVSGFSLTSYGVHWIRQAPGQGLEWMGVIWAGGSTNYNSKFQGRVTMTKDNSKSTVYMELSSLRSEDTAVYYCARGGYEGAAWFGYWGQGTLVTVSS VL: DIQLTQSPATLSLSPGERATLSCRASSSVSYMHWYQQKPGQSPRPLIYATSNLASGVPARFSGSGSGTDYTLTISSLEPEDFAVYYCQQWNSNPLTFGAGTKVEIKR	≤ 0.001	≤ 1e-07	224000
XENP27597 (antibody, human IgG1, lambda, V domains shown, bivalent anti-NKG2D mAb, IgG1 with ablation variants; also called KYK-1.0[NKG2D]_H1L1_IgG1_PVA_/S267K) VH: EVQLVESGGGVVQPGGSLRLSCAASGFTFSSYGMHWVRQAPGKGLEWVAFIRYDGSNKYYADSVKGRFTISRDNSKNTKYLQMNSLRAEDTAVYYCAKDRFGYYLDYWGQGTLVTVSS VL: QPVLTQPSSVSVAPGETARIPCGGDDIETKSVHWYQQKPGQAPVLVIYDDDDRPSGIPERFFGSNSGNTATLSISRVEAGDEADYYCQVWDDNNDEWVFGGGTQLTVLG	0.613	0.00113	1.85e+06
XENP27598 (antibody, human IgG1, kappa, V domains shown, humanized bivalent anti-NKG2D mAb, IgG1 with ablation variants; also called mAb B[NKG2D]_H1L1_IgG1_PVA_/S267K) VH: QVQLVQSGAEVKKPGASVKVSCKASGYTFTSYWMNWVRQAPGQGLEWMGRIDPYDSETHYNQKFQGRVTMTVDKSTSTAYMELSSLRSEDTAVYYCAKMGDYSFDYWGQGTLVTVSS VL: DIQLTQSPSSLSASVGDRVTITCRASGNIHNYLAWYQQKPGKSPKVLVYNAKTLADGVPSRFSGSGSGTDYTLTISSLQPEDFATYYCQHFWSTTWTFGGGTKVEIKR	0.679	0.000746	1.1e+06
XENP27601 (antibody, human IgG1, kappa, V domains shown, humanized bivalent anti-NKG2D mAb, IgG1 with ablation variants; also called mAb B[NKG2D]_H2L1_IgG1_PVA_/S267K) VH: EVQLVQSGAEVKKPGESLRISCKASGYTFTSYWMNWVRQMPGKGLEWMGRIDPYDSETHYNPSFQGHVTISVDKSISTAYLQWSSLKASDTAMYYCAKMGDYSFDYWGQGTLVTVSS VL: DIQLTQSPSSLSASVGDRVTITCRASGNIHNYLAWYQQKPGKSPKVLVYNAKTLADGVPSRFSGSGSGTDYTLTISSLQPEDFATYYCQHFWSTTWTFGGGTKVEIKR	0.894	0.0011	1.23e+06
XENP27600 (antibody, human IgG1, kappa, V domains shown, humanized bivalent anti-NKG2D mAb, IgG1 with ablation variants; also called mAb B[NKG2D]_H1L2_IgG1_PVA_/S267K) VH: QVQLVQSGAEVKKPGASVKVSCKASGYTFTSYWMNWVRQAPGQGLEWMGRIDPYDSETHYNQKFQGRVTMTVDKSTSTAYMELSSLRSEDTAVYYCAKMGDYSFDYWGQGTLVTVSS VL: DIQLTQSPDSLAVSLGERATINCKASGNIHNYLAWYQQKPGQSPKVLVYNAKTLADGVPSRFSGSGSGTDYTLTISSLQAEDVAVYYCQHFWSTTWTFGGGTKVEIKR	0.595	0.000666	1.12e+06
XENP27599 (antibody, human IgG1, kappa, V domains shown, humanized bivalent anti-NKG2D mAb, IgG1 with ablation variants; also called mAb B[NKG2D]_H1_L1.1_IgG1_PVA_/S267K) VH: QVQLVQSGAEVKKPGASVKVSCKASGYTFTSYWMNWVRQAPGQGLEWMGRIDPYDSETHYNQKFQGRVTMTVDKSTSTAYMELSSLRSEDTAVYYCAKMGDYSFDYWGQGTLVTVSS VL: DIQLTQSPSSLSASVGDRVTITCRASGNIHNYLAWYQQKPGKSPKVLVYNAKTLADGVPSRFSGSGSGTDYTLTISSLQPEDFATYYCQHFWSTPWTFGGGTKVEIKR	3.5	0.00169	482000

The remaining lines, values ahead:

Kd [nM]	koff [s⁻¹]	kon [M⁻¹ s⁻¹]	Binder
≤ 0.001	≤ 1e-07	698000	XENP27596 (antibody, human IgG1, kappa, V domains shown, bivalent anti-NKG2D mAb, IgG1 with ablation variants; also called mAb D[NKG2D]_H1L1_IgG1_PVA_/S267K) VH: QVQLVQSGAEVKKPGASVKVSCKASGYTFTNYWMHWVRQAPGQGLEWMGEIDPSDIYTNYAQKFQGRVTMTRDTSTSTVYMELSSLRSEDTAVYYCARGIYDGYYVYGMDYWGQGTTVTVSS VL: YIQMTQSPSSLSASVGDRVTITCRSSQDISNYLNWYQQKPGKAPKLLIYYTSRLHSGVPSRFSGSGSGTDFTFTISSLQPEDIATYYCQQGKTLPRTFGGGTKVEIKR
≤ 0.001	≤ 1e-07	254000	XENP27613 (antibody, human IgG1, kappa, V domains shown, humanized bivalent anti-NKG2D mAb, IgG1 with ablation variants; also called mAb A[NKG2D]_H2L1_IgG1_PVA_/S267K) VH: QVQLQESGPGLVKPSETLSLTCTVSGFSLTSYGVHWIRQPPGKGLEWIGVIWAGGSTNYNPSLKSRVTISKDNSKSQVSLKLSSVTAADTAVYYCARGGYEGAAWFGYWGQGTLVTVSS VL: DIQLTQSPSSLSASVGDRVTITCRASSSVSYMHWYQQKPGKSPKPLIYATSNLASGVPARFSGSGSGTDYTLTISSLQPEDFATYYCQQWNSNPLTFGAGTKVEIKR
≤ 0.001	≤ 1e-07	228000	XENP27611 (antibody, human IgG1, kappa, V domains shown, humanized bivalent anti-NKG2D mAb, IgG1 with ablation variants; also called mAb A[NKG2D]_H1L1_IgG1_PVA_/S267K) VH: QVQLVQSGAEVKKPGASVKVSCKVSGFSLTSYGVHWIRQAPGQGLEWMGVIWAGGSTNYNSKFQGRVTMTKDNSKSTVYMELSSLRSEDTAVYYCARGGYEGAAWFGYWGQGTLVTVSS VL: DIQLTQSPSSLSASVGDRVTITCRASSSVSYMHWYQQKPGKSPKPLIYATSNLASGVPARFSGSGSGTDYTLTISSLQPEDFATYYCQQWNSNPLTFGAGTKVEIKR
≤ 0.001	≤ 1e-07	231000	XENP27593 (antibody, human IgG1, kappa, V domains shown, bivalent anti-NKG2D mAb, IgG1 with ablation variants; also called 6H7E7[NKG2D]_H0L0_IgG1_PVA_/S267K) VH: QVQLQESGPGLVAPSQSLSITCTVSGFSLTSYGVHWIRQPPGKGLEWLGVIWAGGSTNYNSALMSRLSISKDNSKSQVFLKMNSLQIDDTAMYYCARGGYEGAAWFGYWGQGTTVTVSS VL: DIQLTQSPAILSASPGEKVTMTCRASSSVSYMHWYQQKPGSSPKPWIYATSNLASGVPARFSGSGSGTSYSLTISRVEAEDAATYYCQQWNSNPLTFGAGTKLEIKR
≤ 0.001	≤ 1e-07	489000	XENP27592 (antibody, human IgG1, kappa, V domains shown, bivalent anti-NKG2D mAb, IgG1 with ablation variants; also called 6E5A7[NKG2D]_H0L0_IgG1_PVA_/S267K) VH: QVQLQQSGPGLVQPSQSLSITCTVSGFSLTIYGVHWVRQSPGKGLEWLGVIWSGGSTDYNAAFISRLSISKDNSKRQVFFKMSSLQANDTAIYYCSRKSHDGYYGVMDYWGQGTTVTVSS VL: DIQLTQSPAILSVSPGERVSFSCRASQSIGTSIHWYQQRTNGSPRLLIKYASESISGIPSRFSGSGSGTDFTLSINGVESEDIADYYCQQSNTWPLTFGAGTKLEIKR
